US20260028383A1 (KINE BIOTECH, published 2026)
Positions count from the first letter of the chain named. Numbers in names are those of the source. Read-outs that look alike come from different tables or passages of the source. One block for each molecule: values may come before it.

Tests used:
Assay in all cases: cell-based or functional assay
[1] = target: high-affinity IL-2R (containing the α/β/γc-subunits of the IL-2R) expressed on CTLL-2 cells (mouse) (UniProt P01590)
[2] = target: high-affinity IL-2R (containing the α/β/γc-subunits of the IL-2R) expressed on CTLL-2 cells (mouse) (UniProt P01590); remark: listed apart in the source
[3] = target: T1, high-affinity IL-2R (containing the α/β/γc-subunits of the IL-2R) expressed on CTLL-2 cells (mouse, UniProt P01590 22-268; P16297 27-539; P34902 23-369)
T1 sequence (looked up) 1: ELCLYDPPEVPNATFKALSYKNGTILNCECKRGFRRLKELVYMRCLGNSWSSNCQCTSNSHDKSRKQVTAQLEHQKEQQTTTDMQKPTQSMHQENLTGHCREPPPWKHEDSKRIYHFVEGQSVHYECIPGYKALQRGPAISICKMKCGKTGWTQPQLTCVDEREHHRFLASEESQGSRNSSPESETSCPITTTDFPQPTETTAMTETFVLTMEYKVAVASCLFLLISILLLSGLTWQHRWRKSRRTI
T1 sequence (looked up) 2: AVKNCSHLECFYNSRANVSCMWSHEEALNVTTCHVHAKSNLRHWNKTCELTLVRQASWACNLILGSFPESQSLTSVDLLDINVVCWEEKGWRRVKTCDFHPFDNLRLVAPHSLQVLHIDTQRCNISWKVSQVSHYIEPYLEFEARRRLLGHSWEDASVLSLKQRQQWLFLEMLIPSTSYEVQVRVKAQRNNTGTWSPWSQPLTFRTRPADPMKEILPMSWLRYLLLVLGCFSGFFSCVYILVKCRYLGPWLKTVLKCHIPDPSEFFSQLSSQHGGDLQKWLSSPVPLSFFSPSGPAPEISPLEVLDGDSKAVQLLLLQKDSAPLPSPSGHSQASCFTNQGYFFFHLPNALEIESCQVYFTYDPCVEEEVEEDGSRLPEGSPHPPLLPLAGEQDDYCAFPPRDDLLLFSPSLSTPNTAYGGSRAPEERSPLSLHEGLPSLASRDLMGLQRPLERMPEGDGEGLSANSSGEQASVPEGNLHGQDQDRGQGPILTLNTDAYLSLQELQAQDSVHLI
T1 sequence (looked up) 3: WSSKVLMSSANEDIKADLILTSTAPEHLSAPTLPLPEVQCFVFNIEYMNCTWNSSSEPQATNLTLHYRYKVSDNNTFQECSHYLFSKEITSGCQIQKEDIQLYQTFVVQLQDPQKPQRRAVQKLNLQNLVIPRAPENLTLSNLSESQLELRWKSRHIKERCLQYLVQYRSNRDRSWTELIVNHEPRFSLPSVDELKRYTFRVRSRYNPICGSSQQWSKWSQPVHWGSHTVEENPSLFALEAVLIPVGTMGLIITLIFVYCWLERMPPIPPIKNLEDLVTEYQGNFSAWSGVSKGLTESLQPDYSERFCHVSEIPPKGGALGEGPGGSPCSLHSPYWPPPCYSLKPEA

[4] = target: T2, intermediate-affinity IL-2R (containing the β/γc-subunits of the IL-2R) expressed on HH cells (human, UniProt P14784 27-551; P31785 23-369)
T2 sequence (looked up) 1: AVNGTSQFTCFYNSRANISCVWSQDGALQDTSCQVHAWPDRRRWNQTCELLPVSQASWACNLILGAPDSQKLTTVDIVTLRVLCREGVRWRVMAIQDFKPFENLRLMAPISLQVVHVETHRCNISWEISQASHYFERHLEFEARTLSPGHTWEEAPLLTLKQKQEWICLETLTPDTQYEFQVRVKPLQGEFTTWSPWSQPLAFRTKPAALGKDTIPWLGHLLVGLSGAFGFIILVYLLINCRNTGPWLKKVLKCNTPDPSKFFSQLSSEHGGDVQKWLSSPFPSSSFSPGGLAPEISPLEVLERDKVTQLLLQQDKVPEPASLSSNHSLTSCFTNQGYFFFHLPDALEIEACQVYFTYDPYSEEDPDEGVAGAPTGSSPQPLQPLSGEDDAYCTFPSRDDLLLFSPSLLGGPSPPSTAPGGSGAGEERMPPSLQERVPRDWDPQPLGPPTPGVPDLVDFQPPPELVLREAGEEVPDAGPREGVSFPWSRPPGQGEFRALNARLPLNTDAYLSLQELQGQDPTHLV
T2 sequence (looked up) 2: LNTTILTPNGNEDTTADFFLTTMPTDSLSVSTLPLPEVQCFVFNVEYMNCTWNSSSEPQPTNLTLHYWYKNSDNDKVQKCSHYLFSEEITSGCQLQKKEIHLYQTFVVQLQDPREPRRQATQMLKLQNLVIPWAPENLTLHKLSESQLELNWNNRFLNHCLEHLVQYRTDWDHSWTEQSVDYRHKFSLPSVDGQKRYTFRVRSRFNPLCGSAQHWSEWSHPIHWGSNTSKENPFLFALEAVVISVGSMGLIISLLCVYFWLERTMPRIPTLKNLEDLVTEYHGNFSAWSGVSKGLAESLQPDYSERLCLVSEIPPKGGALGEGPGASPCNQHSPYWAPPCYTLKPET

[5] = target: T2, intermediate-affinity IL-2R (containing …); remark: listed apart in the source
[6] = target: T2, intermediate-affinity IL-2R (containing …); remark: listed apart in the source
[7] = target: T2, intermediate-affinity IL-2R (containing …); remark: listed apart in the source
[8] = target: T1, high-affinity IL-2R (containing the …); remark: listed apart in the source
[9] = target: T2, intermediate-affinity IL-2R (containing …); remark: listed apart in the source
[10] = target: T1, high-affinity IL-2R (containing the …); remark: listed apart in the source

EC50 (CTLL-2): pSTAT-5 induction in CTLL-2 cells (flow cytometry) [1]: 0.2 nM
EC50 of pSTAT-5 induction in CTLL-2 cells (flow cytometry) [1]: 0.17 nM
EC50 of pSTAT-5 induction in CTLL-2 cells (flow cytometry) [2]: 0.231 nM
Molecule: wild-type IL-2 (proleukin) (from UniProt P60568 21-153) (ligand)

EC50 of pSTAT-5 induction in CTLL-2 cells (flow cytometry) [3]: 44.1 nM
EC50 of pSTAT-5 induction in HH cells (flow cytometry) [4]: 9.6 nM
EC50 (HH/CTLL-2): EC50 on HH cells (intermediate-affinity IL-2R) divided by EC50 on CTLL-2 cells (high-affinity IL-2R) [5]: 0.22 ratio
B1: IL-2 variant IL-2_#3 (F42V, Y45A, L72N, C125G) (ligand)
chain: APTSSSTKKTQLQLEHLLLDLQMILNGINNYKNPKLTRMLTVKFAMPKKATELKHLQCLEEELKPLEEVLNNAQSKNFHLRPRDLISNINVIVLELKGSETTFMCEYADETATIVEFLNRWITFGQSIISTLT

EC50 of pSTAT-5 induction in CTLL-2 cells (flow cytometry) [3]: 120 nM
EC50 of pSTAT-5 induction in HH cells (flow cytometry) [4]: 90.2 nM
EC50 (HH/CTLL-2): EC50 on HH cells (intermediate-affinity IL-2R) divided by EC50 on CTLL-2 cells (high-affinity IL-2R) [5]: 0.75 ratio
B5: IL-2 variant IL-2_#8 (F42V, Y45S, L72N, C125G) (ligand)
chain: B1 chain with A45S

EC50 (HH/CTLL-2): EC50 on HH cells (intermediate-affinity IL-2R) divided by EC50 on CTLL-2 cells (high-affinity IL-2R) [6]: 0.94 ratio
EC50 of pSTAT-5 induction in HH cells (flow cytometry) [7]: 8.95 nM
EC50 of pSTAT-5 induction in CTLL-2 cells (flow cytometry) [8]: 9.56 nM
B6: IL-2 variant IL-2_#28 (F42A, Y45D, L72D) (ligand)
chain: B1 chain with V42A, A45D, N72D, G125C

Second part, the molecule before the results:

B2: IL-2 variant IL-2_#12 (F42C, Y45N, L72V) (ligand)
chain: B1 chain with V42C, A45N, N72V, G125C
EC50 of pSTAT-5 induction in CTLL-2 cells (flow cytometry) [3]: 2.32 nM
EC50 of pSTAT-5 induction in HH cells (flow cytometry) [4]: 0.556 nM
EC50 (HH/CTLL-2): EC50 on HH cells (intermediate-affinity IL-2R) divided by EC50 on CTLL-2 cells (high-affinity IL-2R) [5]: 0.24 ratio

B3: IL-2 variant IL-2_#31 (F42A, Y45M, L72N) (ligand)
chain: B1 chain with V42A, A45M, G125C
EC50 (HH/CTLL-2): EC50 on HH cells (intermediate-affinity IL-2R) divided by EC50 on CTLL-2 cells (high-affinity IL-2R) [6]: 0.05 ratio
EC50 of pSTAT-5 induction in HH cells (flow cytometry) [7]: 0.11 nM
EC50 of pSTAT-5 induction in CTLL-2 cells (flow cytometry) [8]: 2.02 nM

B4: IL-2 variant IL-2_#9 (F42H, Y45D, L72I, C125G) (ligand)
chain: B1 chain with V42H, A45D, N72I
EC50 of pSTAT-5 induction in CTLL-2 cells (flow cytometry) [3]: 10 nM
EC50 of pSTAT-5 induction in HH cells (flow cytometry) [4]: 17.9 nM
EC50 (HH/CTLL-2): EC50 on HH cells (intermediate-affinity IL-2R) divided by EC50 on CTLL-2 cells (high-affinity IL-2R) [5]: 1.79 ratio

B7: mutant IL-2, IL-2v (AAG), with F42A, Y45A, and L72G substitutions of IL-2 (F. Hoffmann-La Roche Ltd) (ligand)
chain: B1 chain with V42A, N72G, G125C
EC50 (HH): pSTAT-5 induction in HH cells (flow cytometry) [9]: 2.01 nM
EC50 (HH/CTLL-2): EC50 on HH cells (intermediate-affinity IL-2R) divided by EC50 on CTLL-2 cells (high-affinity IL-2R) [9]: 0.037 ratio
EC50 (CTLL-2): pSTAT-5 induction in CTLL-2 cells (flow cytometry) [10]: 54.1 nM
